Article PMC5096451

Target: RhoA (UniProt P61586)
Sequence (P61586 whole entry): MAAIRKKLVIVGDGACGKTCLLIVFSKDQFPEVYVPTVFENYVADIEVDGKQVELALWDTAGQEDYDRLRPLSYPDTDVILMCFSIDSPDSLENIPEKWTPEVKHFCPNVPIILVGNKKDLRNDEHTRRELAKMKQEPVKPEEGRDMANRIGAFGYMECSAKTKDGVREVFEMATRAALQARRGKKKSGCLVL

Chain of SseJ (Q9FD10 whole entry): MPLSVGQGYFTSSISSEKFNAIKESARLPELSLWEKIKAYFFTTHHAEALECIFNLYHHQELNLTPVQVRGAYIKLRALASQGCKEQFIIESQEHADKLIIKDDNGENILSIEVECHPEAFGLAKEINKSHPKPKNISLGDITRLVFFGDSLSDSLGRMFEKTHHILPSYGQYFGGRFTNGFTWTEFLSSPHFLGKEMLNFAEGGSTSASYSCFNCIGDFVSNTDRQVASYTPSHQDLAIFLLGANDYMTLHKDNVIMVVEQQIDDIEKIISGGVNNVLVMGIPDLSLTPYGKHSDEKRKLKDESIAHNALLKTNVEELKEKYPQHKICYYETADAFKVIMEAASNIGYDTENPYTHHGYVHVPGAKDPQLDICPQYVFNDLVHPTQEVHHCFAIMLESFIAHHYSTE

Work on “SseJ (from UniProt Q9FD10 1-408) (enzyme)” yielded a SseJ lipase stimulation (PNPP), 200 nM SseJ and 200 nM RhoA-GDP of 0.21 mAU/min and a SseJ lipase stimulation (PNPP), 200 nM SseJ and 200 nM RhoA-GTPγS of 1.2 mAU/min.
